# Test results from patent US20260008857A1 (FLAGSHIP PIONEERING INNOVATIONS VI, published 2026).
# T1: IL-4Rα on human primary cells (primary B cells, whole blood B and T cells, PBMCs) (human, UniProt P24394 26-825)
# T1 sequence (looked up): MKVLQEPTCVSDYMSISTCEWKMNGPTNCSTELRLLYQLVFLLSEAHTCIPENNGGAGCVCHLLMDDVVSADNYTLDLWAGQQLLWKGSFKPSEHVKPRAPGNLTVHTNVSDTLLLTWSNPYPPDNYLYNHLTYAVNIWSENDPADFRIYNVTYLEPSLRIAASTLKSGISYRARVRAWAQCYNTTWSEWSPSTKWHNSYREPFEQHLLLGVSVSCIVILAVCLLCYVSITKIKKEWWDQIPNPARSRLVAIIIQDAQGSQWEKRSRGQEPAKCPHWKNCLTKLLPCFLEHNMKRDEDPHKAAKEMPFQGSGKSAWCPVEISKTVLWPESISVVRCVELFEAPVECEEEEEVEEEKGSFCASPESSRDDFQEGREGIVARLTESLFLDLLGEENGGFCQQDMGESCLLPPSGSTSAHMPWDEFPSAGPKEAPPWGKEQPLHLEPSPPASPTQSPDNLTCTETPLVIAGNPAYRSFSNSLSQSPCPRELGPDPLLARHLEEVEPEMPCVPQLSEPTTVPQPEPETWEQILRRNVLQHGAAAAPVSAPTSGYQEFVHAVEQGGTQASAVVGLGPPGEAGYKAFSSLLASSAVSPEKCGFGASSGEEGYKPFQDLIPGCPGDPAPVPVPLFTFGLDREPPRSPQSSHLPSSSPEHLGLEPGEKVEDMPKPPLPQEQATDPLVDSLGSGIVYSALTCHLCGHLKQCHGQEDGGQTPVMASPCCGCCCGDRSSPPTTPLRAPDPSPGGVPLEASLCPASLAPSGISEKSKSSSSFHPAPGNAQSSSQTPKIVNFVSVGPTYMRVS
# T2: human IL-4Rα (interleukin 4 receptor subunit alpha) (human, UniProt P24394 26-232, limits assumed)
# T2 sequence (looked up): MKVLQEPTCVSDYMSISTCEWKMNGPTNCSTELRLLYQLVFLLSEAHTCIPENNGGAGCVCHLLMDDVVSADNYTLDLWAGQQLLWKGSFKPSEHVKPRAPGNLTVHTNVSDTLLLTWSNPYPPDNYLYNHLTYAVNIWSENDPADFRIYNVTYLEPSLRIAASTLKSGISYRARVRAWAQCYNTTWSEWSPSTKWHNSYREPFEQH
# Target: T1, IL-4Rα on human primary cells (primary …)
# Experiment: cell-based or functional assay
Binder,"Inhibition of CD23 Expression by Primary B cells (IC50), Donor 13","Inhibition of CD23 Expression by Primary B cells (IC50), Donor 52","Inhibition of CD23 Expression by Primary B cells (IC50), Donor 53","Inhibition of CD23 Expression by Primary B cells (IC50), Donor 56"
"Reference Antibody (antibody, human IgG4 S228P, kappa, V domains shown) VH: EVQLVESGGGLEQPGGSLRLSCAGSGFTFRDYAMTWVRQAPGKGLEWVSSISGSGGNTYYADSVKGRFTISRDNSKNTLYLQMNSLRAEDTAVYYCAKDRLSITIRPRYYGLDVWGQGTTVTVSS VL: DIVMTQSPLSLPVTPGEPASISCRSSQSLLYSIGYNYLDWYLQKSGQSPQLLIYLGSNRASGVPDRFSGSGSGTDFTLKISRVEAEDVGFYYCMQALQTPYTFGQGTKLEIKR",22 nM,11.9 nM,18 nM,29.8 nM
"AB-13b (antibody, human IgG4 S228P, kappa, hIgG4 LS variant, kappa) heavy: not shown light: DIVMTQSPLSLPVTPGEPASISCRSSQSLLYSHGYNYLDWYLQKSGQSPQLLIYLASNRASGVPDRFSGSGSGTDFTLKISRVEAEDVGFYYCMQSLYTPYTFGQGTKLEIKRTVAAPSVFIFPPSDEQLKSGTASVVCLLNNFYPREAKVQWKVDNALQSGNSQESVTEQDSKDSTYSLSSTLTLSKADYEKHKVYACEVTHQGLSSPVTKSFNRGEC",30.1 nM,34.4 nM,35.9 nM,54.2 nM
"AB-13a (antibody, human IgG4 S228P, kappa, hIgG4 YTE variant, kappa) heavy: EVQLVESGGGLEQPGGSLRLSCAGSGFTFRDYAMTWVRQAPGKGLEWVSSISGSGSNTYYADSVKGRFTISRDNSKNTLYLQMNSLRAEDTAVYYCAKDRWTSSVRPVYRGLDIWGQGTTVTVSSASTKGPSVFPLAPCSRSTSESTAALGCLVKDYFPEPVTVSWNSGALTSGVHTFPAVLQSSGLYSLSSVVTVPSSSLGTKTYTCNVDHKPSNTKVDKRVESKYGPPCPPCPAPEFLGGPSVFLFPPKPKDTLYITREPEVTCVVVDVSQEDPEVQFNWYVDGVEVHNAKTKPREEQFNSTYRVVSVLTVLHQDWLNGKEYKCKVSNKGLPSSIEKTISKAKGQPREPQVYTLPPSQEEMTKNQVSLTCLVKGFYPSDIAVEWESNGQPENNYKTTPPVLDSDGSFFLYSRLTVDKSRWQEGNVFSCSVMHEALHNHYTQKSLSLSLGK light: DIVMTQSPLSLPVTPGEPASISCRSSQSLLYSHGYNYLDWYLQKSGQSPQLLIYLASNRASGVPDRFSGSGSGTDFTLKISRVEAEDVGFYYCMQSLYTPYTFGQGTKLEIKRTVAAPSVFIFPPSDEQLKSGTASVVCLLNNFYPREAKVQWKVDNALQSGNSQESVTEQDSKDSTYSLSSTLTLSKADYEKHKVYACEVTHQGLSSPVTKSFNRGEC",27.5 nM,17.8 nM,40.6 nM,54.4 nM

# Target: T2, human IL-4Rα (interleukin 4 receptor …)
# Experiment: indirect ELISA on plate-coated recombinant human IL-4Rα (2 ug/mL), anti-human IgG Fc-HRP, A450
row,Binder,EC50 (read off the curve)
1,"AB-3c (antibody, human IgG4 S228P, kappa, hIgG4 WT ('c')) heavy chain: not shown light chain: DIVMTQSPLSLPVTPGEPASISCRSSQSLLYSTGYNYLDWYLQKSGQSPQLLIYLGSNRASGVPDRFSGSGSGTDFTLKISRVEAEDVGFYYCMQSLSTPYTFGQGTKLEIKRTVAAPSVFIFPPSDEQLKSGTASVVCLLNNFYPREAKVQWKVDNALQSGNSQESVTEQDSKDSTYSLSSTLTLSKADYEKHKVYACEVTHQGLSSPVTKSFNRGEC",~0.1 nM

# Target: T2, human IL-4Rα (interleukin 4 receptor …)
# Experiment: SPR, Biacore 8K+ multi-cycle capture kinetics; antibody captured on goat anti-human polyclonal surface, human IL-4Rα as analyte, 25 C, 1:1 model
Binder,Kd,koff,kon
"AB-13b (antibody, human IgG4 S228P, kappa, hIgG4 LS variant, kappa) heavy: not shown light: DIVMTQSPLSLPVTPGEPASISCRSSQSLLYSHGYNYLDWYLQKSGQSPQLLIYLASNRASGVPDRFSGSGSGTDFTLKISRVEAEDVGFYYCMQSLYTPYTFGQGTKLEIKRTVAAPSVFIFPPSDEQLKSGTASVVCLLNNFYPREAKVQWKVDNALQSGNSQESVTEQDSKDSTYSLSSTLTLSKADYEKHKVYACEVTHQGLSSPVTKSFNRGEC",0.0249 nM,2.19e-05 s⁻¹,881000 M⁻¹ s⁻¹
"AB-13a (antibody, human IgG4 S228P, kappa, hIgG4 YTE variant, kappa) heavy: EVQLVESGGGLEQPGGSLRLSCAGSGFTFRDYAMTWVRQAPGKGLEWVSSISGSGSNTYYADSVKGRFTISRDNSKNTLYLQMNSLRAEDTAVYYCAKDRWTSSVRPVYRGLDIWGQGTTVTVSSASTKGPSVFPLAPCSRSTSESTAALGCLVKDYFPEPVTVSWNSGALTSGVHTFPAVLQSSGLYSLSSVVTVPSSSLGTKTYTCNVDHKPSNTKVDKRVESKYGPPCPPCPAPEFLGGPSVFLFPPKPKDTLYITREPEVTCVVVDVSQEDPEVQFNWYVDGVEVHNAKTKPREEQFNSTYRVVSVLTVLHQDWLNGKEYKCKVSNKGLPSSIEKTISKAKGQPREPQVYTLPPSQEEMTKNQVSLTCLVKGFYPSDIAVEWESNGQPENNYKTTPPVLDSDGSFFLYSRLTVDKSRWQEGNVFSCSVMHEALHNHYTQKSLSLSLGK light: DIVMTQSPLSLPVTPGEPASISCRSSQSLLYSHGYNYLDWYLQKSGQSPQLLIYLASNRASGVPDRFSGSGSGTDFTLKISRVEAEDVGFYYCMQSLYTPYTFGQGTKLEIKRTVAAPSVFIFPPSDEQLKSGTASVVCLLNNFYPREAKVQWKVDNALQSGNSQESVTEQDSKDSTYSLSSTLTLSKADYEKHKVYACEVTHQGLSSPVTKSFNRGEC",0.0333 nM,2.59e-05 s⁻¹,778000 M⁻¹ s⁻¹
"AB-13d (antibody, human IgG1, kappa, hIgG1, kappa) heavy: not shown light: DIVMTQSPLSLPVTPGEPASISCRSSQSLLYSHGYNYLDWYLQKSGQSPQLLIYLASNRASGVPDRFSGSGSGTDFTLKISRVEAEDVGFYYCMQSLYTPYTFGQGTKLEIKRTVAAPSVFIFPPSDEQLKSGTASVVCLLNNFYPREAKVQWKVDNALQSGNSQESVTEQDSKDSTYSLSSTLTLSKADYEKHKVYACEVTHQGLSSPVTKSFNRGEC",0.0326 nM,2.57e-05 s⁻¹,789000 M⁻¹ s⁻¹

# Target: T2, human IL-4Rα (interleukin 4 receptor …)
# Experiment: SPR, Carterra LSA non-regenerative capture kinetics; antibody captured on goat anti-human polyclonal lawn, human IL-4Rα as analyte, 25 C, 1:1 model; average ± SD of technical replicates
row,Binder,Kd
1,"AB-10c (antibody, human IgG4 S228P, kappa, V domains shown, hIgG4 WT, kappa) VH: EVQLVESGGGLEQPGGSLRLSCAGSGFTFRDYAMTWVRQAPGKGLEWVSSISGSGDKTYYADSVKGRFTISRDNSKNTLYLQMNSLRAEDTAVYYCARDRLSSSARPVYVGLDVWGQGTTVTVSS VL: DIVMTQSPLSLPVTPGEPASISCRSSQSLLYSVGKNYLDWYLQKSGQSPQLLIYLASNRASGVPDRFSGSGSGTDFTLKISRVEAEDVGFYYCMQDLFHPYTFGQGTKLEIKR",546 nM
2,"AB-12c (antibody, human IgG4 S228P, kappa, hIgG4 WT, kappa) heavy: not shown light: DIVMTQSPLSLPVTPGEPASISCRSSQSLLYSQGYNYLDWYLQKSGQSPQLLIYLASNRASGVPDRFSGSGSGTDFTLKISRVEAEDVGFYYCMQSLFTPYTFGQGTKLEIKRTVAAPSVFIFPPSDEQLKSGTASVVCLLNNFYPREAKVQWKVDNALQSGNSQESVTEQDSKDSTYSLSSTLTLSKADYEKHKVYACEVTHQGLSSPVTKSFNRGEC",≤ 0.09 nM
3,"AB-11c (antibody, human IgG4 S228P, kappa, V domains shown, hIgG4 WT, kappa) VH: EVQLVESGGGLEQPGGSLRLSCAGSGFTFRDYAMTWVRQAPGKGLEWVSSISGSGTNTYYADSVKGRFTISRDNSKNTLYLQMNSLRAEDTAVYYCAKDRLSVSTRPKYYGLDVWGQGTTVTVSS VL: DIVMTQSPLSLPVTPGEPASISCRSSQSLDYSYGYNYLDWYLQKSGQSPQLLIYLASNRASGVPDRFSGSGSGTDFTLKISRVEAEDVGFYYCMQSLHTPYTFGQGTKLEIKR",0.83 nM
4,"AB-7c (antibody, human IgG4 S228P, kappa, V domains shown, hIgG4 WT, kappa) VH: EVQLVESGGGLEQPGGSLRLSCAGSGFTFRDYAMTWVRQAPGKGLEWVSSISGSGSTTYYADSVKGRFTISRDNSKNTLYLQMNSLRAEDTAVYYCAKDRLTASVRPIYVGLDVWGQGTTVTVSS VL: DIVMTQSPLSLPVTPGEPASISCRSSQSLLYSEGYNYLDWYLQKSGQSPQLLIYLASNRASGVPDRFSGSGSGTDFTLKISRVEAEDVGFYYCMQTLKTPYTFGQGTKLEIKR",0.3 nM
5,"AB-5c (antibody, human IgG4 S228P, kappa, hIgG4 WT, kappa) heavy: not shown light: DIVMTQSPLSLPVTPGEPASISCRSSQSLDYSIGYNYLDWYLQKSGQSPQLLIYLASNRASGVPDRFSGSGSGTDFTLKISRVEAEDVGFYYCMQALQTPYTFGQGTKLEIKRTVAAPSVFIFPPSDEQLKSGTASVVCLLNNFYPREAKVQWKVDNALQSGNSQESVTEQDSKDSTYSLSSTLTLSKADYEKHKVYACEVTHQGLSSPVTKSFNRGEC",2.37 nM
6,"AB-4c (antibody, human IgG4 S228P, kappa, hIgG4 WT, kappa) heavy: not shown light: DIVMTQSPLSLPVTPGEPASISCRSSQSLLYSTGYNYLDWYLQKSGQSPQLLIYLASNRASGVPDRFSGSGSGTDFTLKISRVEAEDVGFYYCMQALSTPYTFGQGTKLEIKRTVAAPSVFIFPPSDEQLKSGTASVVCLLNNFYPREAKVQWKVDNALQSGNSQESVTEQDSKDSTYSLSSTLTLSKADYEKHKVYACEVTHQGLSSPVTKSFNRGEC",0.56 nM
7,"AB-2c (antibody, human IgG4 S228P, kappa, V domains shown, hIgG4 WT, kappa) VH: EVQLVESGGGLEQPGGSLRLSCAGSGFTFRDYAMTWVRQAPGKGLEWVSSISGSGSNTYYADSVKGRFTISRDNSKNTLYLQMNSLRAEDTAVYYCARDRLTAAVRPYYYGLDVWGQGTTVTVSS VL: DIVMTQSPLSLPVTPGEPASISCRSSQSLDYSSGYNYLDWYLQKSGQSPQLLIYLASNRASGVPDRFSGSGSGTDFTLKISRVEAEDVGFYYCMQSLQTPYTFGQGTKLEIKR",50.7 nM
8,"AB-8c (antibody, human IgG4 S228P, kappa, V domains shown, hIgG4 WT, kappa) VH: EVQLVESGGGLEQPGGSLRLSCAGSGFTFRDYAMTWVRQAPGKGLEWVSSISGSGSNTYYADSVKGRFTISRDNSKNTLYLQMNSLRAEDTAVYYCAKDRLTASVRPNYYGLDVWGQGTTVTVSS VL: DIVMTQSPLSLPVTPGEPASISCRSSQSLLYSEGYNYLDWYLQKSGQSPQLLIYLASNRASGVPDRFSGSGSGTDFTLKISRVEAEDVGFYYCMQSLTTPYTFGQGTKLEIKR",0.85 nM
9,"AB-6c (antibody, human IgG4 S228P, kappa, hIgG4 WT, kappa) heavy: not shown light: DIVMTQSPLSLPVTPGEPASISCRSSQSLLYSIGYNYLDWYLQKSGQSPQLLIYLASNRASGVPDRFSGSGSGTDFTLKISRVEAEDVGFYYCMQSLQTPYTFGQGTKLEIKRTVAAPSVFIFPPSDEQLKSGTASVVCLLNNFYPREAKVQWKVDNALQSGNSQESVTEQDSKDSTYSLSSTLTLSKADYEKHKVYACEVTHQGLSSPVTKSFNRGEC",≤ 0.1 nM
